Ends that are not written are not given here.
Biological target: T1, dipeptidyl-peptidase IV (DPP-IV) (Homo sapiens, UniProt P27487)
T1 construct: purchased Creative BioMart (Shirley, NY, USA); host or cells: HEK293 human cells
Assay: DPP-IV inhibition assay on SPOT-synthesized peptides (cleaved from cellulose membrane)
Assay type: biochemical
Details: peptides cleaved from cellulose membrane, concentration not known (semi-quantitative); averages of four determinations from two experiments
Excerpt: Recombinant human dipeptidyl-peptidase IV (DPP-IV, EC 3.4.14.5, expressed in HEK293 human cells, >95% purity, activity >5500 pmoles Gly–Pro–7-amido-4-methylcoumarin/min/µg) was purchased from Creative BioMart (Shirley, NY, USA) while polyclonal goat DPP-IV antibody and polyclonal donkey anti-goat secondary antibody conjugated to horseradish peroxidase were obtained from R&D Systems (Minneapolis, MN, USA). Pierce™ ECL western blotting substrate and protein-free (TBS) blocking buffer were from Thermo Scientific (Rockford, IL, USA). Gly–Pro–p-nitroanilide (H-Gly–Pro–p-NA∙HCl) was purchased from Bachem Americas (Torrance, CA, USA). Synthesized peptides (≥95% purity) were prepared and purified by GL Biochem (Shanghai) Ltd. (Shanghai, China).
Peptide arrays of deca-peptides spanning the entire α-lactalbumin sequence with a frame shift of one amino acid between successive sequences were prepared by Kinexus Bioinformatics Corporation (Vancouver, BC, Canada). The peptides were synthesized from the C-terminal amino acid using the SPOT technology consisting of the stepwise coupling of the Fmoc-protected amino acids and cleavage of the side chain protection groups. The α-lactalbumin-derived peptides were synthesized on trioxatridecanediamine (TOTD) and β-alanine-modified Whatman 540 cellulose membranes for the binding and inhibition assays, respectively. For the inhibition assay, the peptides were synthesized in large dots (5–7 mm in diameter) and the quality of the synthesis was verified by HPLC analysis of quality controls spots included on the membranes.
In order to determine the effect of the SPOT-synthesized peptides on the activity of the DPP-IV enzyme, the peptides were first cleaved from the cellulose support by incubating the membranes with gaseous ammonia overnight. Peptide spots (5 mm in diameter) were then punched out using a single-hole punch and transferred into microcentrifuge tubes containing 150 µL of acetonitrile (50% in 100 mM Tris–HCl buffer pH 8.0). The peptide solution (50 µL) was pipetted into a 96-well microplate with 35 µL of the chromogenic substrate Gly–Pro–p-NA (0.29 mM in 100 mM Tris–HCl buffer pH 8.0). The mixture was pre-incubated for 10 min at 37 °C, whereupon 15 µL of DPP-IV (25 mU/mL) was added and the enzymatic reaction was carried out for 30 min at 37 °C. The reaction was then terminated by addition of 100 µL of 1 M sodium acetate buffer pH 4.0 and the absorbance of the released p-nitroaniline was measured at 405 nm using a Tecan Infinite® 200 Pro microplate reader (ESBE Scientific, Markham, ON, Canada). Positive and negative controls (DPP-IV activity with no inhibitor and no DPP-IV activity, respectively) were prepared using punched peptide-free cellulose spots from the same membrane used for peptide synthesis, and adding Tris-HCl buffer in place of the sample and in place of the sample and enzyme solution, respectively.
One unit of DPP-IV was defined as the concentration of enzyme that releases 1 µmol per min of p-nitroaniline from Gly–Pro–p-NA (100 µM) at 37 °C and pH 8.0.

T1 sequence (P27487 whole entry): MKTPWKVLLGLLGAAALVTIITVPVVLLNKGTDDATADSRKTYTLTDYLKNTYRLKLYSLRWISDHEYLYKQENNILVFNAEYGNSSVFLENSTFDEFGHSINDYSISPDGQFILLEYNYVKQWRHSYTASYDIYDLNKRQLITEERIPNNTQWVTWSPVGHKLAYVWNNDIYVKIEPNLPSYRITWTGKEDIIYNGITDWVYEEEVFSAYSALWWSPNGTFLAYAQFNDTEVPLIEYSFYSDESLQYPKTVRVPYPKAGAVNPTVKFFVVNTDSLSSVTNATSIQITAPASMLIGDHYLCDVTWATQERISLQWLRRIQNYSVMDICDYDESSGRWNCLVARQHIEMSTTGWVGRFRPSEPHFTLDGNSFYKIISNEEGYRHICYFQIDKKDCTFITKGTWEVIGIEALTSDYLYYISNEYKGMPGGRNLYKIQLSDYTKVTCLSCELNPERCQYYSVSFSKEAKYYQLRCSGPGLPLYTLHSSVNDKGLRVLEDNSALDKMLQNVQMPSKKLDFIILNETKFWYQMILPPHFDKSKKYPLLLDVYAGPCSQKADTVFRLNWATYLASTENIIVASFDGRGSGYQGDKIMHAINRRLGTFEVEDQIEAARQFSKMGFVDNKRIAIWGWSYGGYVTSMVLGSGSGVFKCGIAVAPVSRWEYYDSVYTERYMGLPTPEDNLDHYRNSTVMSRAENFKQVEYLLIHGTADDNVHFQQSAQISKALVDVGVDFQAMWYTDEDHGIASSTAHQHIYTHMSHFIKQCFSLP

Substance	Percent inhibition of DPP-IV activity, SPOT-synthesized deca-peptides
G2: α-lactalbumin-derived deca-peptide, residues 68–77 (Table S1) (HSSNICNISC; UniProt P00711 87-96, looked up, fragment)	9%
G3: α-lactalbumin-derived deca-peptide, residues 69–78 (Table S1) (SSNICNISCD; UniProt P00711 88-97, looked up, fragment)	16%
G4: α-lactalbumin-derived deca-peptide, residues 70–79 (Table S1) (SNICNISCDK; UniProt P00711 89-98, looked up, fragment)	19%
G5: α-lactalbumin-derived deca-peptide, residues 71–80 (Table S1) (NICNISCDKF; UniProt P00711 90-99, looked up, fragment)	25%
G7: α-lactalbumin-derived deca-peptide, residues 73–82 (Table S1) (CNISCDKFLD; UniProt P00711 92-101, looked up, fragment)	17%
G8: α-lactalbumin-derived deca-peptide, residues 74–83 (Table S1) (NISCDKFLDD; UniProt P00711 93-102, looked up, fragment)	19%
G9: α-lactalbumin-derived deca-peptide, residues 75–84 (Table S1) (ISCDKFLDDD; UniProt P00711 94-103, looked up, fragment)	18%
GLFQINNKIW [E7]	9%
H1: α-lactalbumin-derived deca-peptide, residues 78–87 (Table S1) (DKFLDDDLTD; UniProt P00711 97-106, looked up, fragment)	19%
H2: α-lactalbumin-derived deca-peptide, residues 79–88 (Table S1) (KFLDDDLTDD; UniProt P00711 98-107, looked up, fragment)	18%
H3: α-lactalbumin-derived deca-peptide, residues 80–89 (Table S1) (FLDDDLTDDI; UniProt P00711 99-108, looked up, fragment)	18%
H4: α-lactalbumin-derived deca-peptide, residues 81–90 (Table S1) (LDDDLTDDIM; UniProt P00711 100-109, looked up, fragment)	21%
H5: α-lactalbumin-derived deca-peptide, residues 82–91 (Table S1) (DDDITDDIMC; UniProt P00709 101-110, looked up, fragment)	14%
H6: α-lactalbumin-derived deca-peptide, residues 83–92 (Table S1) (DDLTDDIMCV; UniProt P00711 102-111, looked up, fragment)	19%
H7: α-lactalbumin-derived deca-peptide, residues 84–93 (Table S1) (DLTDDIMCVK; UniProt P00711 103-112, looked up, fragment)	25%
H8: α-lactalbumin-derived deca-peptide, residues 85–94 (Table S1) (LTDDIMCVKK; UniProt P00711 104-113, looked up, fragment)	20%
H9: α-lactalbumin-derived deca-peptide, residues 86–95 (Table S1) (TDDIMCAKKI; UniProt P00709 105-114, looked up, fragment)	20%
H10: α-lactalbumin-derived deca-peptide, residues 87–96 (Table S1) (DDIMCVKKIL; UniProt P00711 106-115, looked up, fragment)	20%

Substance	Percent inhibition of DPP-IV activity, SPOT-synthesized deca-peptides
H11: α-lactalbumin-derived deca-peptide, residues 88–97 (Table S1) (DIMCVKKILD; UniProt P00711 107-116, looked up, fragment)	15%
HAEGTFTSDY [K10, HAEGTFTSDY, reference compound]	19%
HKALCSEKLD [J8]	20%
HTSGYDTQAI [C10]	11%
I1: α-lactalbumin-derived deca-peptide, residues 89–98 (Table S1) (IMCVKKILDK; UniProt P00711 108-117, looked up, fragment)	17%
I2: α-lactalbumin-derived deca-peptide, residues 90–99 (Table S1) (MCAKKILDIK; UniProt P00709 109-118, looked up, fragment)	19%
I3: α-lactalbumin-derived deca-peptide, residues 91–100 (Table S1) (CVKKILDKVG; UniProt P00711 110-119, looked up, fragment)	26%
I6: α-lactalbumin-derived deca-peptide, residues 94–103 (Table S1) (KILDKVGINY; UniProt P00711 113-122, looked up, fragment)	20%
I7: α-lactalbumin-derived deca-peptide, residues 95–104 (Table S1) (ILDKVGINYW; UniProt P00711 114-123, looked up, fragment)	19%
I8: α-lactalbumin-derived deca-peptide, residues 96–105 (Table S1) (LDKVGINYWL; UniProt P00711 115-124, looked up, fragment)	16%
I9: α-lactalbumin-derived deca-peptide, residues 97–106 (Table S1) (DKVGINYWLA; UniProt P00711 116-125, looked up, fragment)	22%
I10: α-lactalbumin-derived deca-peptide, residues 98–107 (Table S1) (KVGINYWLAH; UniProt P00711 117-126, looked up, fragment)	22%
I11: α-lactalbumin-derived deca-peptide, residues 99–108 (Table S1) (VGINYWLAHK; UniProt P00711 118-127, looked up, fragment)	20%
INNKIWCKDD [E11, INNKIWCKDD]	21%
IVQNNDSTEY [D8]	15%
IWCKDDQNPH [F4]	21%
J1: α-lactalbumin-derived deca-peptide, residues 100–109 (Table S1) (GIDYWLAHKA; UniProt P00709 119-128, looked up, fragment)	25%
J2: α-lactalbumin-derived deca-peptide, residues 101–110 (Table S1) (IDYWLAHKAL; UniProt P00709 120-129, looked up, fragment)	18%

— paper PMC4264199, “Peptide Array on Cellulose Support—A Screening Tool to Identify Peptides with Dipeptidyl-Peptidase IV Inhibitory Activity within the Sequence of α-Lactalbumin” (International Journal of Molecular Sciences, 2014)
